# Test results from article PMC2756588.
# T1: Fus1, P11710
# T1 sequence (P11710 432-512, looked up): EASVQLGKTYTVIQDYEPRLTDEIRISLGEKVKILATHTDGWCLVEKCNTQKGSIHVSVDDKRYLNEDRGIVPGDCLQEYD
# T2: Myo5, Q04439
# T2 sequence (Q04439 1072-1160, looked up): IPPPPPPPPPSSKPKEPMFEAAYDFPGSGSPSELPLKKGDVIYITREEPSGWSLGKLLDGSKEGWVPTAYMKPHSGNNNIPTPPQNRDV
# T3: Lsb3, P43603
# T3 sequence (P43603 385-451, looked up): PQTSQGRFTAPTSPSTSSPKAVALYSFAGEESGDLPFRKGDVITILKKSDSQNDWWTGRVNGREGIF
# T4: Bbc1, P47068
# T4 sequence (P47068 1-78, looked up): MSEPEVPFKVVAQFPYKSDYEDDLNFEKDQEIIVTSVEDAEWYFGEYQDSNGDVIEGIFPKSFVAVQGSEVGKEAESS
# T5: Lsb1, P53281
# T5 sequence (P53281 45-122, looked up): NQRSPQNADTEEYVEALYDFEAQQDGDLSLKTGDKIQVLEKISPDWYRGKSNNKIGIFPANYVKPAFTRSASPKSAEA
# T6: Pin3, Q06449
# T6 sequence (Q06449 53-122, looked up): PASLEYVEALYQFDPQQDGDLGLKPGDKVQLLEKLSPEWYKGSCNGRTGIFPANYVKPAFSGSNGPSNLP
# T7: Sla1-3, P32790
# T7 sequence (P32790 344-424, looked up): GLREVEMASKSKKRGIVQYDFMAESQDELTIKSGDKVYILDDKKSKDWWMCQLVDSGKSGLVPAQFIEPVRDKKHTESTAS
# T8: Bzz1-2, P38822
# T8 sequence (P38822 568-633, looked up): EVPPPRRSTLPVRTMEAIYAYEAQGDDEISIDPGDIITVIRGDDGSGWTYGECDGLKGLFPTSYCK
# T9: Cyk3, Q07533
# T9 sequence (Q07533 1-83, looked up): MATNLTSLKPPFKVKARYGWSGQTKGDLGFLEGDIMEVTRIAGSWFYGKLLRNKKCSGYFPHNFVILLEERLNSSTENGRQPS
# T10: Boi2, P39969
# T10 sequence (P39969 32-116, looked up): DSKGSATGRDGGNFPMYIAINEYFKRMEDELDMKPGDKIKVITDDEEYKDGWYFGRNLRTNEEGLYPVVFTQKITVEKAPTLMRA
# T11: Hse1, P38753
# T11 sequence (P38753 208-285, looked up): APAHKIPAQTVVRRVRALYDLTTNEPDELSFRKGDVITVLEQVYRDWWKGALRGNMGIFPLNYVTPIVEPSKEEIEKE
# T12: Lsb4, P32793
# T12 sequence (P32793 402-468, looked up): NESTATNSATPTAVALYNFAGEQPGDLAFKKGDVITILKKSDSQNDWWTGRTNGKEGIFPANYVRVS
# T13: Hof1, Q05080
# T13 sequence (Q05080 590-669, looked up): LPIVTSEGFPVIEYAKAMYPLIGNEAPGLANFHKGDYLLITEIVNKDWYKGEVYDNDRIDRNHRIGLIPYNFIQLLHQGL
# T14: Cdc25, P04821
# T14 sequence (P04821 50-136, looked up): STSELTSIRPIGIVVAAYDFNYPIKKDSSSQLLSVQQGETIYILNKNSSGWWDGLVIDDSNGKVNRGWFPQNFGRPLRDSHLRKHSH
# T15: Nbp2, Q12163
# T15 sequence (Q12163 103-180, looked up): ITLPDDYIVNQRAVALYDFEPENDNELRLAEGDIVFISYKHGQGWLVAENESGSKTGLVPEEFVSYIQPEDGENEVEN
# T16: Abp1, P15891
# T16 sequence (P15891 535-592, looked up): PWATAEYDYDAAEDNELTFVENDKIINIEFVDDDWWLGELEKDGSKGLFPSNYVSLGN
# T17: Sla1-2, P32790
# T17 sequence (P32790 60-140, looked up): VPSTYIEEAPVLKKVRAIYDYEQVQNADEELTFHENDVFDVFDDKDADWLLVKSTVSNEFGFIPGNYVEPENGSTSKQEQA
# T18: Bzz1-1, P38822
# T18 sequence (P38822 478-572, looked up): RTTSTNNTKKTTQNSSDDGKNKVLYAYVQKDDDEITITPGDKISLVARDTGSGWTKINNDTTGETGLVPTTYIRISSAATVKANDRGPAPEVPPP
# T19: Boi1, P38041
# T19 sequence (P38041 1-86, looked up): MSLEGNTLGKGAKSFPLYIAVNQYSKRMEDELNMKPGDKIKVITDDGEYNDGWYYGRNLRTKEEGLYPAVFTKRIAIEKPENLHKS
# T20: Bud14, P27637
# T20 sequence (P27637 247-328, looked up): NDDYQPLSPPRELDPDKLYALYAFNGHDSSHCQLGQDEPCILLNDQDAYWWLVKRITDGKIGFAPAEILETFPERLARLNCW
# T21: Pex13, P80667
# T21 sequence (P80667 295-386, looked up): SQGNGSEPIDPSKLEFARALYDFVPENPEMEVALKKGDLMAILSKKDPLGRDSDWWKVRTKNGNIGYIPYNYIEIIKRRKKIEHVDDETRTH
# Molecular target: T1, Fus1, P11710
# Experiment: SPOT array
# Conditions: median of control spots 1200
row,Binder,SPOT intensity
1,KTRLRPAFIQQLWSS,7
2,ITHRLRISIPGITGR,39
3,LKQRFFLMFPKSIIW,38

# Molecular target: T2, Myo5, Q04439
# Experiment: SPOT array
# Conditions: median of control spots 471
row,Binder,SPOT intensity
1,KTRLRPAFIQQLWSS,0
2,ITHRLRISIPGITGR,4
3,LKQRFFLMFPKSIIW,0

# Molecular target: T3, Lsb3, P43603
# Experiment: SPOT array
# Conditions: median of control spots 406
row,Binder,SPOT intensity
1,KTRLRPAFIQQLWSS,0
2,ITHRLRISIPGITGR,9
3,LKQRFFLMFPKSIIW,0

# Molecular target: Bem1-2, P29366
# Sequence (P29366 139-227): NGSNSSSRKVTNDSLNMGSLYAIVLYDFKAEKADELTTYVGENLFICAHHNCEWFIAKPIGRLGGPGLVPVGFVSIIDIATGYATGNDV
# Experiment: SPOT array
# Conditions: median of control spots 4347
row,Binder,SPOT intensity
1,KTRLRPAFIQQLWSS,0
2,ITHRLRISIPGITGR,6
3,LKQRFFLMFPKSIIW,1

# Molecular target: T4, Bbc1, P47068
# Experiment: SPOT array
# Conditions: median of control spots 796
row,Binder,SPOT intensity
1,KTRLRPAFIQQLWSS,17
2,ITHRLRISIPGITGR,24
3,LKQRFFLMFPKSIIW,23

# Molecular target: T5, Lsb1, P53281
# Experiment: SPOT array
# Conditions: median of control spots 388
row,Binder,SPOT intensity
1,KTRLRPAFIQQLWSS,0
2,ITHRLRISIPGITGR,231
3,LKQRFFLMFPKSIIW,7

# Molecular target: T6, Pin3, Q06449
# Experiment: SPOT array
# Conditions: median of control spots 2171
row,Binder,SPOT intensity
1,KTRLRPAFIQQLWSS,15
2,ITHRLRISIPGITGR,69
3,LKQRFFLMFPKSIIW,54

# Molecular target: T7, Sla1-3, P32790
# Experiment: SPOT array
# Conditions: median of control spots 5475
row,Binder,SPOT intensity
1,KTRLRPAFIQQLWSS,33
2,ITHRLRISIPGITGR,2
3,LKQRFFLMFPKSIIW,17

# Molecular target: T8, Bzz1-2, P38822
# Experiment: SPOT array
# Conditions: median of control spots 4538
row,Binder,SPOT intensity
1,KTRLRPAFIQQLWSS,0
2,ITHRLRISIPGITGR,0
3,LKQRFFLMFPKSIIW,0

# Molecular target: T9, Cyk3, Q07533
# Experiment: SPOT array
# Conditions: median of control spots 1451
row,Binder,SPOT intensity
1,KTRLRPAFIQQLWSS,3
2,ITHRLRISIPGITGR,0
3,LKQRFFLMFPKSIIW,4

# Molecular target: T10, Boi2, P39969
# Experiment: SPOT array
# Conditions: median of control spots 1161
row,Binder,SPOT intensity
1,KTRLRPAFIQQLWSS,0
2,ITHRLRISIPGITGR,1
3,LKQRFFLMFPKSIIW,1

# Molecular target: T11, Hse1, P38753
# Experiment: SPOT array
# Conditions: median of control spots 1727
row,Binder,SPOT intensity
1,KTRLRPAFIQQLWSS,5
2,ITHRLRISIPGITGR,11
3,LKQRFFLMFPKSIIW,8

# Molecular target: T12, Lsb4, P32793
# Experiment: SPOT array
# Conditions: median of control spots 397
row,Binder,SPOT intensity
1,KTRLRPAFIQQLWSS,0
2,ITHRLRISIPGITGR,5
3,LKQRFFLMFPKSIIW,0

# Molecular target: T13, Hof1, Q05080
# Experiment: SPOT array
# Conditions: median of control spots 4086
row,Binder,SPOT intensity
1,KTRLRPAFIQQLWSS,0
2,ITHRLRISIPGITGR,1
3,LKQRFFLMFPKSIIW,5

# Molecular target: T14, Cdc25, P04821
# Experiment: SPOT array
# Conditions: median of control spots 969
row,Binder,SPOT intensity
1,KTRLRPAFIQQLWSS,13
2,ITHRLRISIPGITGR,29
3,LKQRFFLMFPKSIIW,25

# Molecular target: Sho1, P40073
# Sequence (P40073 287-367): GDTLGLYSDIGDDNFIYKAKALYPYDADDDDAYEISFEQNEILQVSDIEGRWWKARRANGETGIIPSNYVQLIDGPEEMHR
# Experiment: SPOT array
# Conditions: median of control spots 1148
row,Binder,SPOT intensity
1,KTRLRPAFIQQLWSS,22
2,ITHRLRISIPGITGR,191
3,LKQRFFLMFPKSIIW,53

# Molecular target: T15, Nbp2, Q12163
# Experiment: SPOT array
# Conditions: median of control spots 357
row,Binder,SPOT intensity
1,KTRLRPAFIQQLWSS,4
2,ITHRLRISIPGITGR,32
3,LKQRFFLMFPKSIIW,9

# Molecular target: T16, Abp1, P15891
# Experiment: SPOT array
# Conditions: median of control spots 935
row,Binder,SPOT intensity
1,KTRLRPAFIQQLWSS,31
2,ITHRLRISIPGITGR,118
3,LKQRFFLMFPKSIIW,63

# Molecular target: T17, Sla1-2, P32790
# Experiment: SPOT array
# Conditions: median of control spots 712
row,Binder,SPOT intensity
1,KTRLRPAFIQQLWSS,0
2,ITHRLRISIPGITGR,4
3,LKQRFFLMFPKSIIW,0

# Molecular target: T18, Bzz1-1, P38822
# Experiment: SPOT array
# Conditions: median of control spots 4446
row,Binder,SPOT intensity
1,KTRLRPAFIQQLWSS,0
2,ITHRLRISIPGITGR,1
3,LKQRFFLMFPKSIIW,0

# Molecular target: T19, Boi1, P38041
# Experiment: SPOT array
# Conditions: median of control spots 1162
row,Binder,SPOT intensity
1,KTRLRPAFIQQLWSS,1
2,ITHRLRISIPGITGR,1
3,LKQRFFLMFPKSIIW,2

# Molecular target: Myo3, P36006
# Experiment: SPOT array
# Conditions: median of control spots 468
row,Binder,SPOT intensity
1,KTRLRPAFIQQLWSS,0
2,ITHRLRISIPGITGR,37
3,LKQRFFLMFPKSIIW,12

# Molecular target: T20, Bud14, P27637
# Experiment: SPOT array
# Conditions: median of control spots 956
row,Binder,SPOT intensity
1,KTRLRPAFIQQLWSS,4
2,ITHRLRISIPGITGR,8
3,LKQRFFLMFPKSIIW,27

# Molecular target: GST
# Experiment: SPOT array
# Conditions: median of control spots 978
row,Binder,SPOT intensity
1,KTRLRPAFIQQLWSS,0
2,ITHRLRISIPGITGR,0
3,LKQRFFLMFPKSIIW,0

# Molecular target: Bem1-1, P29366
# Sequence (P29366 55-141): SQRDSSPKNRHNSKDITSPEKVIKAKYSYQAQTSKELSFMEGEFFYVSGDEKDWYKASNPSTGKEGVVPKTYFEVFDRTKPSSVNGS
# Experiment: SPOT array
# Conditions: median of control spots 4282
row,Binder,SPOT intensity
1,KTRLRPAFIQQLWSS,1
2,ITHRLRISIPGITGR,0
3,LKQRFFLMFPKSIIW,0

# Molecular target: Rvs167, P39743
# Sequence (P39743 419-482): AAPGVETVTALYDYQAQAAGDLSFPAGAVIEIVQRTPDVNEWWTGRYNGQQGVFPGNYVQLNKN
# Experiment: SPOT array
# Conditions: median of control spots 2707
row,Binder,SPOT intensity
1,KTRLRPAFIQQLWSS,1
2,ITHRLRISIPGITGR,0
3,LKQRFFLMFPKSIIW,0

# Molecular target: T21, Pex13, P80667
# Experiment: SPOT array
# Conditions: median of control spots 1341
row,Binder,SPOT intensity
1,KTRLRPAFIQQLWSS,7
2,ITHRLRISIPGITGR,32
3,LKQRFFLMFPKSIIW,21
